Source: patent US10752675B2, “Compounds for treating the remyelination blockade in diseases associated with the expression of HERV-W envelope protein” (GENEURO S.A., priority 2012, dated 2020)
“Also recorded” adds a separate entry of the source.

Key:
[1] = system: MSRV-Env induced EAE in C57BL/6 mice; assay: EAE clinical score with intravenous MSRV-Env challenge, Example 3.B; assay type: in vivo
From the text: (§1) Animals were weighed and clinically scored 5 days per week according to the following criteria: 0=no signs; 1=tail paralysis or hyper-reflex of hind limb(s) or unilateral hind limb weakness; 2=bilateral hind limb or forelimb weakness; 3=plus unilateral paralysis or major deficit; 4=complete hind limb or forelimb paralysis; 5=plus partial paralysis or major deficit of opposite limbs; 6=moribund or dead. These were adapted from standard criteria, in order to reflect the more rapid induction of brain and cervical cord lesions with this model.
When not specified, all materials and methods were as described for Example 3A.
All mice received three injections s.c. on the neck at DO, on the dorsal flank at D7 and D14. Here, mice from Group A were injected with 200 μg/mouse of MOG and IFA only, without Env, thus constituting a negative control group without EAE in the present series (ctrl −). The positive control group with untretated EAE in the present series is represented by Group B (ctrl +). Other groups were injected with 200 μg of MOG/mouse+MSRV-ENV (60 μg)+IFA, with treatments as indicated in the above summarized presentation. […]
For Groups G and H receiving DMF, we have previously determined the volume of daily water consumption by each mouse and it has been realized that (in our condition), each mouse consumed around 3.5 ml drinking water per day. […]

[2] = system: MSRV-Env induced EAE in C57BL/6 mice; assay: EAE clinical score, Example 3.A (EAE induced with MOG and MSRV-Env); assay type: in vivo; conditions: treatment from day 12 to day 29: GNbAc1 200 μg once, L-NAME 600 μg IP and SMT 1 mg IP every 4 days, DMF 1 mg daily in drinking water
From the text: Pathogen free female C57BL/6 nice (6-8 weeks old) were purchased from the Charles River laboratories and maintained at the animal facilities for one week before immunization. One day before immunization, all mice have been weighed, and then evaluated on the Rotarod Test. Rotarod:
as §1
All groups of 6 (six) mice have been first injected s.c. in the neck on day 0 then in the dorsal flanks on day 7 and 14; with 200 μg of MOG/mouse+60 μg of MSRV-Env+IFA.
For Groups G to H, the treatments with GNbAc1, L-NAME, SMT and DMF alone or together with GNbAc1 with the doses indicated below, have been initiated on day 12 post immunization when the progression of EAE clinical symptoms was already observed. GNbAc1 humanized antibody was administered once, but L-Name or SMT was administered every 4 days until termination of the study on day 29. Regarding Groups E and H, attributed for the treatment with DMF, we have previously determined the volume of daily water consumption by each mouse and it has been determined that (in our condition), each mouse consumed around 3.5 ml drinking water per day. Thus, on the basis of this measurement, a dose of 1 mg DMF+0.08% Methocel per mouse were added to 3.5 ml drinking water daily.
350 ng of pertussis toxin (PTX) per animal was injected (i.p.) in all groups on the same day following each immunogen injection, and replicated 2 days later, as usual in EAE protocols in order to facilitate the migration lymphocytes through the blood-brain barrier.

B1: GNbAC1: recombinant humanized anti-Env IgG4 monoclonal antibody comprising the CDRs of SEQ ID No. 1 to 6 (antibody, chains of the INN, looked up, V domains shown)
VH: QVQLVQSGAEVKKPGSSVKVSCKASGYTFTDYEMHWVRQAPGQGLEWIGAVAPETGGTAYNQKFKGRATITADKSTSTAYMELSSLRSEDTAVYYCTSTVVPFAYWGQGTLVTVSS
VL: QIQLTQSPSSLSASVGDRVTITCSASSSVSYMYWYQQKPGKAPKAWIYRTSNLASGVPSRFSGSGSGTDYTLTISSLQPEDFATYYCQQYQSLPLTFGGGTKVEIK
EAE clinical score after iv MSRV-Env challenge (20 μg) ([1]; GNbAC1 200 μg at day 12, alone or with SMT (I.P. twice a week) or DMF (2 mg daily in drinking water)): transient clinical impairment | EAE clinical score after iv MSRV-Env challenge (20 μg) ([1]; GNbAC1 500 μg at day 12, alone or with SMT or DMF (2 mg daily in drinking water)): very efficient in conferring resistance; also recorded: best clinical efficiency | EAE clinical score kinetics and recovery [2]: improve after its injection | EAE clinical score kinetics and recovery ([2]; listed as GNbAc1): diminished slightly
